Assays:
[1] = biological target: T1, ARHGAP4 peptide AGPLRKSSLKKGGRL (SEQ ID NO:98) (not fully specified)
T1 chain: AGPLRKSSLKKGGRL

[2] = biological target: T2, CREB1 peptide EILSRRPSYRKILND (SEQ ID NO:106) (not fully specified)
T2 chain: EILSRRPSYRKILND

[3] = biological target: T3, DGKI peptide NRKKKRTSFKRKA (SEQ ID NO:79) (not fully specified)
T3 chain: NRKKKRTSFKRKA

[4] = biological target: T4, ERN1 peptide ISDFGLAKKLAVGRHSFSRR (SEQ ID NO:145) (not fully specified)
T4 chain: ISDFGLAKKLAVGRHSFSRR

[5] = biological target: T5, ERN1 peptide KLAVGRHSFSRRSGV (SEQ ID NO:94) (not fully specified)
T5 chain: KLAVGRHSFSRRSGV

[6] = biological target: T6, GABRB2 peptide QKKSRLRRRASQLKI (SEQ ID NO:84) (not fully specified)
T6 chain: QKKSRLRRRASQLKI

[7] = biological target: T7, HERG peptide TELEGGFSRQRKRKLSFRRR (SEQ ID NO:140) (not fully specified)
T7 chain: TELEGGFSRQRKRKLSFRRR

[8] = biological target: T8, KCNH2 peptide RQRKRKLSFRRRTDKD (SEQ ID NO:86) (not fully specified)
T8 chain: RQRKRKLSFRRRTDKD

[9] = biological target: T9, LIMK-2 peptide LRRRSLRRSNSISKSPGP (SEQ ID NO:121) (not fully specified)
T9 chain: LRRRSLRRSNSISKSPGP

[10] = biological target: T10, LIMK2 peptide KATTKKRTLRKNDRK (SEQ ID NO:108) (not fully specified)
T10 chain: KATTKKRTLRKNDRK

[11] = biological target: T11, M1 muscarinic receptor peptide RWDKRRWRKIPKRPGSVHRT (SEQ ID NO:155) (not fully specified)
T11 chain: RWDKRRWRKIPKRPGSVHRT

[12] = biological target: T12, MLK3 peptide HVRRRRGTFKRSKLRARD (SEQ ID NO:76) (not fully specified)
T12 chain: HVRRRRGTFKRSKLRARD

[13] = biological target: T13, NF1 peptide AGSFKRNSIKKIV (SEQ ID NO:102) (not fully specified)
T13 chain: AGSFKRNSIKKIV

[14] = biological target: T14, NF1 peptide SQVQKQRSAGSFKRNSIKKI (SEQ ID NO:127) (not fully specified)
T14 chain: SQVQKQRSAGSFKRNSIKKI

[15] = biological target: T15, NMDAR1 peptide RAITSTLASSFKRRR (SEQ ID NO:122) (not fully specified)
T15 chain: RAITSTLASSFKRRR

[16] = biological target: T16, NR4A3 peptide KEVVRTDSLKGRRGR (SEQ ID NO:109) (not fully specified)
T16 chain: KEVVRTDSLKGRRGR

[17] = biological target: T17, PARIS1 peptide EYLERRASRRRAV (SEQ ID NO:138) (not fully specified)
T17 chain: EYLERRASRRRAV

[18] = biological target: T18, PARIS1 peptide EYLERRASRRRAV (SEQ ID NO:89) (not fully specified)
T18 chain: EYLERRASRRRAV

[19] = biological target: T19, PKD1 peptide RVVQSVKHTKRKSSTVMK (SEQ ID NO:149) (not fully specified)
T19 chain: RVVQSVKHTKRKSSTVMK

[20] = biological target: T20, PRKCM peptide VHYTSKDTLRKRHYWR (SEQ ID NO:91) (not fully specified)
T20 chain: VHYTSKDTLRKRHYWR

[21] = biological target: T21, SDPR peptide EKIKRSSLKKVDSLKK (SEQ ID NO:104) (not fully specified)
T21 chain: EKIKRSSLKKVDSLKK

[22] = biological target: T22, ankyrin R peptide DLIEGRKGAQIVKRASLKRG (SEQ ID NO:152) (not fully specified)
T22 chain: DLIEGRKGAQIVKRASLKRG

[23] = biological target: T23, beta adducin peptide KKKFRTPSFLKKSKK (SEQ ID NO:135) (not fully specified)
T23 chain: KKKFRTPSFLKKSKK

[24] = biological target: T24, beta adducin peptide PSKSPSKKKKKFRTPSFLKK (SEQ ID NO:137) (not fully specified)
T24 chain: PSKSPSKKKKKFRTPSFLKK

[25] = biological target: T25, calcium channel, voltage-dependent, L type, alpha peptide RDIRQSPKRGFLRSASLGRR (SEQ ID NO:147) (not fully specified)
T25 chain: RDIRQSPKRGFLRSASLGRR

[26] = biological target: T26, cytohesin-2 peptide VDPFYEMLAARKKRISVKKK (SEQ ID NO:150) (not fully specified)
T26 chain: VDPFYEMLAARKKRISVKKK

[27] = biological target: T27, dag kinase zeta peptide KKKKRASFKRKSSKKG (SEQ ID NO:114) (not fully specified)
T27 chain: KKKKRASFKRKSSKKG

[28] = biological target: T28, kinesin 3C peptide LEKRGMLGKRPRRKSSRRKK (SEQ ID NO:133) (not fully specified)
T28 chain: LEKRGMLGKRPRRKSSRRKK

[29] = biological target: T29, pleckstrin 1 peptide KAIKAIEGGQKFARKSTRRS (SEQ ID NO:126) (not fully specified)
T29 chain: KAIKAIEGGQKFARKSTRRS

[30] = biological target: T30, ribosomal protein S6 peptide AKRRRLSSLRASTSK (SEQ ID NO:120) (not fully specified)
T30 chain: AKRRRLSSLRASTSK

[31] = biological target: T31, ubiquitin specific protease 8 peptide RARRDSLKKIEIW (SEQ ID NO:136) (not fully specified)
T31 chain: RARRDSLKKIEIW

B1: PKC-theta (protein)
chain: MSPFLRIGLSNFDCGSCQSCQGEAVNPYCAVLVKEYVESENGQMYIQKKPTMYPPWDSTFDAHINKGRVMQIIVKGKNVDLISETTVELYSLAERCRKNNGKTEIWLELKPQGRMLMNARYFLEMSDTKDMNEFETEGFFALHQRRGAIKQAKVHHVKCHEFTATFFPQPTFCSVCHEFVWGLNKQGYQCRQCNAAIHKKCIDKVIAKCTGSAINSRETMFHKERFKIDMPHRFKVYNYKSPTFCEHCGTLLWGLARQGLKCDACGMNVHHRCQTKVANLCGINQKLMAEALAMIESTQQARCLRDTEQIFREGPVEIGLPCSIKNEARPPCLPTPGKREPQGISWESPLDEVDKMCHLPEPELNKERPSLQIKLKIEDFILHKMLGKGSFGKVFLAEFKKTNQFFAIKALKKDVVLMDDDVECTMVEKRVLSLAWEHPFLTHMFCTFQTKENLFFVMEYLNGGDLMYHIQSCHKFDLSRATFYAAEIILGLQFLHSKGIVYRDLKLDNILLDKDGHIKIADFGMCKENMLGDAKTNTFCGTPDYIAPEILLGQKYNHSVDWWSFGVLLYEMLIGQSPFHGQDEEELFHSIRMDNPFYPRWLEKEAKDLLVKLFVREPEKRLGVRGDIRQHPLFREINWEELERKEIDPPFRPKVKSPFDCSNFDKEFLNEKPRLSFADRALINSMDQNMFRNFSFMNPGMERLIS
- in vitro phosphorylation (% of best substrate) [1]: 22
- in vitro phosphorylation (% of best substrate) [2]: 19
- in vitro phosphorylation (% of best substrate) [3]: 33
- in vitro phosphorylation, 1 uM peptide (% of best substrate) [4]: 27
- in vitro phosphorylation, 10 uM peptide (% of best substrate) [4]: 25
- in vitro phosphorylation (% of best substrate) [5]: 86
- in vitro phosphorylation (% of best substrate) [6]: 87
- in vitro phosphorylation, 1 uM peptide (% of best substrate) [7]: 25
- in vitro phosphorylation, 10 uM peptide (% of best substrate) [7]: 35
- in vitro phosphorylation (% of best substrate) [8]: 38
- Peptide phosphorylation by PKC-theta [9]: 57
- in vitro phosphorylation, 1 uM peptide (% of best substrate) [9]: 51
- in vitro phosphorylation, 10 uM peptide (% of best substrate) [9]: 57
- in vitro phosphorylation (% of best substrate) [10]: 32
- in vitro phosphorylation, 1 uM peptide (% of best substrate) [11]: 23
- in vitro phosphorylation, 10 uM peptide (% of best substrate) [11]: 26
- Peptide phosphorylation by PKC-theta [12]: 99
- in vitro phosphorylation (% of best substrate) [12]: 100
- in vitro phosphorylation (% of best substrate) [13]: 28
- in vitro phosphorylation, 1 uM peptide (% of best substrate) [14]: 45
- in vitro phosphorylation, 10 uM peptide (% of best substrate) [14]: 58
- in vitro phosphorylation, 1 uM peptide (% of best substrate) [15]: 66
- in vitro phosphorylation, 10 uM peptide (% of best substrate) [15]: 42
- in vitro phosphorylation (% of best substrate) [16]: 9
- in vitro phosphorylation, 1 uM peptide (% of best substrate) [17]: 34
- in vitro phosphorylation, 10 uM peptide (% of best substrate) [17]: 39
- in vitro phosphorylation (% of best substrate) [18]: 60
- in vitro phosphorylation, 1 uM peptide (% of best substrate) [19]: 13
- in vitro phosphorylation, 10 uM peptide (% of best substrate) [19]: 14
- in vitro phosphorylation (% of best substrate) [20]: 10
- in vitro phosphorylation (% of best substrate) [21]: 25
- in vitro phosphorylation, 1 uM peptide (% of best substrate) [22]: 31
- in vitro phosphorylation, 10 uM peptide (% of best substrate) [22]: 30
- in vitro phosphorylation, 1 uM peptide (% of best substrate) [23]: 30
- in vitro phosphorylation, 10 uM peptide (% of best substrate) [23]: 36
- in vitro phosphorylation, 1 uM peptide (% of best substrate) [24]: 40
- in vitro phosphorylation, 10 uM peptide (% of best substrate) [24]: 19
- in vitro phosphorylation, 1 uM peptide (% of best substrate) [25]: 20
- in vitro phosphorylation, 10 uM peptide (% of best substrate) [25]: 69
- in vitro phosphorylation, 1 uM peptide (% of best substrate) [26]: 35
- in vitro phosphorylation, 10 uM peptide (% of best substrate) [26]: 35
- in vitro phosphorylation, 1 uM peptide (% of best substrate) [27]: 100
- in vitro phosphorylation, 10 uM peptide (% of best substrate) [27]: 86
- in vitro phosphorylation, 1 uM peptide (% of best substrate) [28]: 46
- in vitro phosphorylation, 10 uM peptide (% of best substrate) [28]: 53
- in vitro phosphorylation, 1 uM peptide (% of best substrate) [29]: 46
- in vitro phosphorylation, 10 uM peptide (% of best substrate) [29]: 45
- in vitro phosphorylation, 1 uM peptide (% of best substrate) [30]: 51
- in vitro phosphorylation, 10 uM peptide (% of best substrate) [30]: 51
- in vitro phosphorylation, 1 uM peptide (% of best substrate) [31]: 42
- in vitro phosphorylation, 10 uM peptide (% of best substrate) [31]: 28

B2: PKC-epsilon (protein)
chain: MVVFNGLLKIKICEAVSLKPTAWSLRHAVGPRPQTFLLDPYIALNVDDSRIGQTATKQKTNSPAWHDEFVTDVCNGRKIELAVFHDAPIGYDDFVANCTIQFEELLQNGSRHFEDWIDLEPEGRVYVIIDLSGSSGEAPKDNEERVFRERMRPRKRQGAVRRRVHQVNGHKFMATYLRQPTYCSHCRDFIWGVIGKQGYQCQVCTCVVHKRCHELIITKCAGLKKQETPDQVGSQRFSVNMPHKFGIHNYKVPTFCDHCGSLLWGLLRQGLQCKVCKMNVHRRCETNVAPNCGVDARGIAKVLADLGVTPDKITNSGQRRKKLIAGAESPQPASGSSPSEEDRSKSAPTSPCDQEIKELENNIRKALSFDNRGEEHRAASSPDGQLMSPGENGEVRQGQAKRLGLDEFNFIKVLGKGSFGKVMLAELKGKDEVYAVKVLKKDVILQDDDVDCTMTEKRILALARKHPYLTQLYCCFQTKDRLFFVMEYVNGGDLMFQIQRSRKFDEPRSRFYAAEVTSALMFLHQHGVIYRDLKLDNILLDAEGHCKLADFGMCKEGILNGVTTTTFCGTPDYIAPEILQELEYGPSVDWWALGVLMYEMMAGQPPFEADNEDDLFESILHDDVLYPVWLSKEAVSILKAFMTKNPHKRLGCVASQNGEDAIKQHPFFKEIDWVLLEQKKIKPPFKPRIKTKRDVNNFDQDFTREEPVLTLVDEAIVKQINQEEFKGFSYFGEDLMP
- in vitro phosphorylation (% of best substrate) [1]: 34
- in vitro phosphorylation (% of best substrate) [2]: 31
- in vitro phosphorylation (% of best substrate) [3]: 92
- in vitro phosphorylation, 1 uM peptide (% of best substrate) [4]: 26
- in vitro phosphorylation (% of best substrate) [5]: 13
- in vitro phosphorylation (% of best substrate) [6]: 52
- in vitro phosphorylation, 1 uM peptide (% of best substrate) [7]: 27
- in vitro phosphorylation (% of best substrate) [8]: 63
- in vitro phosphorylation, 1 uM peptide (% of best substrate) [9]: 49
- in vitro phosphorylation (% of best substrate) [10]: 8
- in vitro phosphorylation, 1 uM peptide (% of best substrate) [11]: 26
- in vitro phosphorylation (% of best substrate) [12]: 100
- in vitro phosphorylation (% of best substrate) [13]: 14
- in vitro phosphorylation, 1 uM peptide (% of best substrate) [14]: 32
- in vitro phosphorylation, 1 uM peptide (% of best substrate) [15]: 72
- in vitro phosphorylation (% of best substrate) [16]: 26
- in vitro phosphorylation, 1 uM peptide (% of best substrate) [17]: 27
- in vitro phosphorylation (% of best substrate) [18]: 45
- in vitro phosphorylation, 1 uM peptide (% of best substrate) [19]: 27
- in vitro phosphorylation (% of best substrate) [20]: 49
- in vitro phosphorylation (% of best substrate) [21]: 17
- in vitro phosphorylation, 1 uM peptide (% of best substrate) [22]: 25
- in vitro phosphorylation, 1 uM peptide (% of best substrate) [23]: 27
- in vitro phosphorylation, 1 uM peptide (% of best substrate) [24]: 32
- in vitro phosphorylation, 1 uM peptide (% of best substrate) [25]: 26
- in vitro phosphorylation, 1 uM peptide (% of best substrate) [26]: 20
- in vitro phosphorylation, 1 uM peptide (% of best substrate) [27]: 100
- in vitro phosphorylation, 1 uM peptide (% of best substrate) [28]: 31
- in vitro phosphorylation, 1 uM peptide (% of best substrate) [29]: 69
- in vitro phosphorylation, 1 uM peptide (% of best substrate) [30]: 56
- in vitro phosphorylation, 1 uM peptide (% of best substrate) [31]: 33

From patent US20050064507
